PMC5769749

Biological target: NC-RLuc (HIV-1 nucleocapsid fused to Renilla luciferase), expressed in HeLa cells (HIV-1)
Assay: proximity ligation

Substance: Staufen1-YFP (from UniProt O95793-2 1-496) (natural protein)
- PLA spots per cell (spots per cell): 103
